In article PMC4611711:

Molecular target: truncated Bid (tBid) of cleaved Bid (cBid) 190C labeled with Alexa Fluor 488 (murine) (UniProt P70444)

p7 fragment of Bid (from cleaved Bid 190C) (domain or fragment)
Kd: 40 nM
